Results reported in doi:10.1101/2021.02.16.431366.

Target: mCherry-TRPV5 (rabbit) (UniProt Q9XSM3)
Assay: single molecule photobleaching counting

Sequence of mCherry-TRPV5 (rabbit) (Q9XSM3 whole entry): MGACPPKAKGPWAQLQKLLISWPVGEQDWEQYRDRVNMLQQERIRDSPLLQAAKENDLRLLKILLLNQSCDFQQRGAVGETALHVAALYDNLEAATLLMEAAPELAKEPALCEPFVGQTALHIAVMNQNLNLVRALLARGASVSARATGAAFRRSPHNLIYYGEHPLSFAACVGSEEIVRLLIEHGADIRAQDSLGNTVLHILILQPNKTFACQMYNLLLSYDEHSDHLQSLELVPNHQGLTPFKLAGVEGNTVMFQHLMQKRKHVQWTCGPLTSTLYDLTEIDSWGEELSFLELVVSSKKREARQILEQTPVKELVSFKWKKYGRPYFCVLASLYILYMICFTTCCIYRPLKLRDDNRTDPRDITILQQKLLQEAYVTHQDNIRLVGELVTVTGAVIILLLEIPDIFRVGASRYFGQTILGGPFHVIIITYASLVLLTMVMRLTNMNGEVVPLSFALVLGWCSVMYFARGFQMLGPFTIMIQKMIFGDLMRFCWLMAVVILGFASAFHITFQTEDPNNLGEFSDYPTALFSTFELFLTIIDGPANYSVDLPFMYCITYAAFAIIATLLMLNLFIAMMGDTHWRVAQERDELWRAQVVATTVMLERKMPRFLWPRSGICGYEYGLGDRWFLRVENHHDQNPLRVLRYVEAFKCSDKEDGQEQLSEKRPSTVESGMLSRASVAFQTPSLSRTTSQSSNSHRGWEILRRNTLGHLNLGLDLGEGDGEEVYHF

stoichiometry N (CaM molecules per TRPV5 tetramer): 2
Substance: CaM-eGFP (from UniProt P0DP29 1-149) (natural protein)
